In publication PMC9242475:

Legend:
[1] = molecular target: HAdV-D37 protein IIIa tagged with C-terminal 3X FLAG (human adenovirus D type 37 (HAdV-D37)); assay: SPR; […] (80 nM or 2.5 nM) […]
[2] = molecular target: HAdV-D37 protein IIIa tagged with C-terminal 3X FLAG (human adenovirus D type 37 (HAdV-D37)); assay: SPR; BIAcore T200, 25°C, […] (25 mM HEPES, 150 mM NaCl, 0.05% P20, 2 mM DTT, pH 7.4); […]; 1:1 binding model

Chain of partial recombinant RANBP2 protein (#ab268915, Abcam) (domain or fragment) (P49792 1346-1815): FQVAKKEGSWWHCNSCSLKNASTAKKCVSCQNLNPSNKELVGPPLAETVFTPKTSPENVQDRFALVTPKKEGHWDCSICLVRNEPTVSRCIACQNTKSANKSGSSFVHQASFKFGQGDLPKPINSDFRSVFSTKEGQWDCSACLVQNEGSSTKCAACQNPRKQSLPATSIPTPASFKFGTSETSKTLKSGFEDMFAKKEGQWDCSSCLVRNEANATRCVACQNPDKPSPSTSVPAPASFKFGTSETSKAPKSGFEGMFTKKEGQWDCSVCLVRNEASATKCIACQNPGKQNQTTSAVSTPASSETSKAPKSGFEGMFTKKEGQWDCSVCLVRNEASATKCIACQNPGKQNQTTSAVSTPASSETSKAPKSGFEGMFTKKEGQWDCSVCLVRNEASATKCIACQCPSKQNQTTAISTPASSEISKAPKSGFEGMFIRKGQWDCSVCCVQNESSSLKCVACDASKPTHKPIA

Substance	Kd [1]	Kd [2]	koff [2]	kon [2]
partial recombinant RANBP2 protein (#ab268915, Abcam) (domain or fragment)	122 nM	13.7 nM	0.000658 s⁻¹	48000 M⁻¹ s⁻¹
recombinant USP9X protein (#ab271784, Abcam) (from UniProt Q93008 1-2554) (enzyme)	1.8 nM	32 nM	0.00119 s⁻¹	37200 M⁻¹ s⁻¹
